Test results taken from patent US20080227704A1 (published 2008).

T1: recombinant purified mouse CXCL13 (mouse, UniProt O55038 22-109, biotinylated in the ELISA of Example 1.1.A.1 (sites not given); unlabelled in Biacore)
T1 sequence: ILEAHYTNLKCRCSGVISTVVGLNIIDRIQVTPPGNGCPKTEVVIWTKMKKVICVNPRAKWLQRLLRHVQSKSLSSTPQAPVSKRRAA


Tests used:
[1] = molecular target: T1, recombinant purified mouse CXCL13; assay: cell-based or functional assay
[2] = molecular target: T1, recombinant purified mouse CXCL13; assay: SPR (Biacore), antibody captured by goat anti-mouse IgG Fc, mouse CXCL13 injected at 0.78-50 nM, 25 C
Method: Binding of antibodies to recombinant purified mouse CXCL13 were determined by surface plasmon resonance-based measurements with a Biacore® 2000 and 3000 instruments (Biacore® AB, Uppsala, Sweden) using running HBS-EP (10 mM HEPES pH 7.4, 150 mM NaCl, 3 mM EDTA, and 0.015% surfactant P20) at 25° C. Experimental data from all kinetic rate determinations of the antibody-antigen reaction were analyzed using Biaevaluation software version 4.0.1.
Mouse Anti Mouse CXCL13 antibodies to be captured as a ligand on the carboxymethyl dextran matrix were diluted in HBS-EP with 0.015% P20 at a concentration of 5-μg/mL. 50-100 μL aliquots were injected over the covalently coupled goat anti-mouse IgG Fc polyclonal antibody biosensor matrices at a flow rate of 25-50 μL/min. The net difference in the baseline signal and the signal after the completion of antibody injection was taken to represent the amount of bound Mouse Anti Mouse CXL13 antibody. Biosensor matrices were typically regenerated with subsequent 25 μL injections of 10 mM Glycine (pH 1.5) before the injection of the next sample. Glycine treatment disrupts the association of non-covalently bound proteins thus Anti CXCL13 antibody-mouse CXCL13 complex dissociates and washes off. The anti-mouse IgG antibody immobilized surfaces were completely regenerated. Aliquots of mouse CXCL13 antigen were injected at a flow rate of 25-50 μL/min over Anti CXCL13 purified monoclonal antibodies captured on the biosensor chips. The concentrations of mouse CXCL13 was ranging between 0.78-50 nM. HBS-EP with 0.015% P20 was flowed through each flow cell in between various cycles of antigens and also immediately before and after the end of kinetic analysis. The signal stabilized 120-180 seconds after the completion of the injection cycle. The net difference in signal between the baseline and the point corresponding to approximately 30 seconds after the completion of antigen injections was taken to represent the amount of antigen bound. The response was measured in resonance units (RU) representing the mass of bound CXCL13 antigen. CXCL13 antigen was also simultaneously injected over the goat anti mouse IgG Fc or goat IgG reference and reaction CM4 surface to record any nonspecific binding background.

[3] = molecular target: T1, recombinant purified mouse CXCL13; assay: ELISA, antibody captured by goat anti-mouse IgG Fc, biotinylated mouse CXCL13 detected with streptavidin-HRP
Method: ELISA plates (Corning Costar, Acton, Mass.) were coated with 50 μL/well of 5 μg/ml goat anti-mouse IgG Fc specific (Pierce # 31170, Rockford, Ill.) in Phosphate Buffered Saline (PBS) overnight at 4 degrees Celsius. Plates were washed once with PBS containing 0.05% Tween-20. Plates were blocked by addition of 200 μL/well blocking solution diluted to 2% in PBS (BioRad #170-6404, Hercules, Calif.) for 1 hour at room temperature. Plates were washed once after blocking with PBS containing 0.05% Tween-20.
Fifty microliters per well of mouse sera or hybridoma supernatants diluted in PBS containing 0.1% Bovine Serum Albumin (BSA) (Sigma, St. Louis, Mo.) was added to the ELISA plate prepared as described above and incubated for 1 hour at room temperature. Wells were washed three times with PBS containing 0.05% Tween-20. Fifty microliters of biotinylated recombinant purified mouse CXCL13 diluted to 100 ng/mL in PBS containing 0.1% BSA was added to each well and incubated for 1 hour at room temperature. Plates were washed 3 times with PBS containing 0.05% Tween-20. Streptavidin HRP (Pierce # 21126, Rockland, Ill.) was diluted 1:20000 in PBS containing 0.1% BSA; 50 μL/well was added and the plates incubated for 1 hour at room temperature. Plates were washed 3 times with PBS containing 0.05% Tween-20. Fifty microliters of TMB solution (Sigma # T0440, St. Louis, Mo.) was added to each well and incubated for 10 minutes at room temperature. The reaction was stopped by addition of 1N sulphuric acid. Plates were read spectrophotmetrically at a wavelength of 450 nm.

Binder | Average Kb (nM) Chemotaxis Assay [1] | Kd [2] | koff [2] | kon [2] | EC50 [3]
XW25-2C4-4H8 (antibody, V domains shown, Mouse anti-mouse CXCL13 monoclonal antibody purified from hybridoma) VH: QVQLQQPGTELVKPGASVKLSCKASGYNFATYWMHWVKQRPGQGLEWIGNINPSDGGTNFNEKFNNKATLTVDKSSSTAYMQLSSLTSEDSAVYYCAKWGGHYVLYWYFDVWGTGTTVTVSS VL: DIVLTQSPATLSVTPGDSVSLSCRASQSISSNLHWYQQKSHESPRLLITYASQSISGIPSRFSGSGSGTDFTLSINSVESEDVGVYFCQQSDSWPLTFGAGTKLELKR | 23 nM | 13 pM | 3.6e-05 s⁻¹ | 2.7e+06 M⁻¹ s⁻¹ | 0.02 nM
XW25-3B5-3F4 (antibody, V domains shown, Mouse anti-mouse CXCL13 monoclonal antibody from hybridoma) VH: QVQLQQPGTELVKPGTSVKLSCKASGYTFTSYWMHWVKQRPGQGLEWIGNINPSDGGIKYNEKFKSKATLTVDKSSSTAYMELSSLTSEDSAVYYCAKWGGHYVLYWYFDVWGTGTTVTVSS VL: DIVLTQSPATLSVTPGDSVSLSCRASQSISNNLHWYQQKSHESPRLLINYASQSISGIPSRFSGSGSGTDFTLSINSVETEDFGMYFCQQSNSWPLTFGAGTKLELKR | – | – | – | – | 0.04 nM
XW25-8H6-4F9 (antibody, V domains shown, Mouse anti-mouse CXCL13 monoclonal antibody from hybridoma) VH: QVQLQQPGTELVKPGASVKLSCKASGYNFATYWMHWVKQRPGQGLEWIGNINPSDGGTNYNEKFNNKATLTVDKSSSTAYMQLSSLTSEDSAVYYCAKWGGHYVLYWYFDVWGTGTTVTVSS VL: DIVLTQSPATLSVTPGDSVSLSCRASQSINNNLHWYQQESHESPRLLITYASQSISGIPSRFSGSGSGTDFTLSINSVESEDFGVYFCQQSNSWPLTFGAGTKLELKR | – | – | – | – | 0.03 nM
XW25-4F2-5D2 (antibody, V domains shown, Mouse anti-mouse CXCL13 monoclonal antibody from hybridoma) VH: QVQLQQPGTELVKPGASVKLSCKASGYNFPTYWMHWVKQRPGQGLEWIGNINPSDGGTNFNEKFNNKATLTVDKSSSTAYMQLSSLTSEDSAVYYCAKWGGHYVLYWYFDVWGTGTTVTVSS VL: DIVLTQSPATLSVTPGDSVSLSCRASQSISNNLHWYQQKSHESPRLLITYASQSISGIPSRFSGSGSGTDFTLSINSVESEDVGVYFCQQSDSWPLTFGAGTKLELKR | 16 nM | – | – | – | 0.02 nM
XW25-5D11-4F3-3D11 (antibody, V domains shown, Mouse anti-mouse CXCL13 monoclonal antibody purified from hybridoma) VH: EVQVQQSGAELVRPGSSVKMSCKTSGYTFTNYGIIWVKQRPGQGLEWIGYIYIGKGYTEYNEKFKGKATLTSDTSSSTVYMQLSSLTSEDSAIYFCARGAHYYGNAMDYWDQGTSVTVSS VL: DIQMTQTTSSLSASLGDRVTISCRSSQDISNFLNWYQQRPDGTVKLLIYYTSRLHSGVPSRFSGSGSGTDYSLTISNLEQEDIATYFCQQGDTLPWTFGGGTKLEIKR | 18.9 nM | – | – | 1e+06 M⁻¹ s⁻¹ | 0.03 nM

The remaining binders from weak to strong by EC50 [3], led by results:

Average Kb (nM) Chemotaxis Assay [1] | Kd [2] | koff [2] | kon [2] | EC50 [3] | Binder
8.12 nM | 2 pM | 2.7e-06 s⁻¹ | 1.6e+06 M⁻¹ s⁻¹ | 0.02 nM | XW25-6A2-2F10 (antibody, V domains shown, Mouse anti-mouse CXCL13 monoclonal antibody purified from hybridoma) VH: QVQLQQPGTELVKPGASVKLSCKASGYNFATYWVHWVKQRPGQGLEWIGNINPSDGGTSYNEKFSKKATLTVDKSSSTAYMELSSLTSEDSAVYYCAKWGGHYVLYWSFDVWGTGTTVTVSS VL: DIVLTQSPATLSVTPGDSVSLSCRASQSISNNLHWYQQRSHESPRLIITHVSQSISGIPSRFSGSGSGTDFIFSINSVESEDFGVYFCQQSNSWPLTFGAGTKLELKR
– | – | – | – | 0.02 nM | XW25-7C7-5E5 (antibody, V domains shown, Mouse anti-mouse CXCL13 monoclonal antibody from hybridoma) VH: QVQLQQPGTELVKPGASVKLSCKASGYNFATYWMHWVKQRPGQGLEWIGNINPSDGGTNFNEKFNNKATLTVDKSSSTAYMHLSSLTSEDSAVYYCAKWGGHYVLYWYFDVWGTGTTVTVSS VL: DIVLTQSPATLSVTPGDSVSLSCRASQNINNNLHWYQQKSHESPRLLITYTSQSISGIPSRFSGSGSGTDFTLSINSVESEDVGVYFCQQSDSWPLTFGAGTKLELKR
– | – | – | – | 0.01 nM | XW25-9C10-4B11 (antibody, V domains shown, Mouse anti-mouse CXCL13 monoclonal antibody from hybridoma) VH: QVQLQQPGTELVKPGASVKLSCKASGYNFATYWMHWVKQRPGQGLEWIGNINPSDGGTNFNEKFNSKATLTVDKSSSTAYMQLSSLTSEDSAVYYCAKWGGHYVLYWYFDVWGTGTTVTVSS VL: DIVLTQSPATLSVTPGDSVSLSCRASQSISSNLHWYQQKSHESPRLLITYASQSISGIPSRFSGSGSGTDFTLSINSVESEDVGVYFCQQSDSWPLTFGAGTKLELKR
